Measurements reported in PMC10987540, “Biogenesis of Rab14-positive endosome buds at Golgi–endosome contacts by the RhoBTB3–SHIP164–Vps26B complex” (Cell Discovery, 2024).

Biological target: T1, GST-SHIP164-CT (residues 1063–1364) (UniProt A0JNW5 1063-1364)
T1 construct: SHIP164, fragment of the C-terminal region, residues 1063-1364; also called purified SHIP164-CT fragment (residues 1063–1364); source: TSsetta (DE3) cells, purified (GST-tag resin)
Test: pull-down; GST pull-down: purified GST protein on GST tag resin, His fusion protein added, 12 h at 4 °C, HNM buffer (20 mM HEPES pH 7.4, 100 mM NaCl, 5 mM MgCl2, 1 mM DTT, 0.2% NP-40); blot with anti-GST or His antibodies
Conditions: both partners purified

T1 sequence (A0JNW5 1063-1364): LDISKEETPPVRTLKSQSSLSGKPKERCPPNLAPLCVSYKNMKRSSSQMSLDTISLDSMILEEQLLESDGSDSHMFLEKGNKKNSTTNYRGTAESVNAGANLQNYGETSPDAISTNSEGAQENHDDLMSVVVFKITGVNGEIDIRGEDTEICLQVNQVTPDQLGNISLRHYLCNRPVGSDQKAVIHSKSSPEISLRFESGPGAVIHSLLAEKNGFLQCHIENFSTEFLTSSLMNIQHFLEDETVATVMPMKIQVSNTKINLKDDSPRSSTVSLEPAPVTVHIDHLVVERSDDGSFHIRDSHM

- binding result: binds
B1: His-Vps26B-NT (residues 1–160) (domain or fragment, UniProt Q4G0F5 1-160, looked up)
chain: MSFFGFGQSVEVEILLNDAESRKRAEHKTEDGKKEKYFLFYDGETVSGKVSLALKNPNKRLEHQGIKIEFIGQIELYYDRGNHHEFVSLVKDLARPGEITQSQAFDFEFTHVEKPYESYTGQNVKLRYFLRATISRRLNDVVKEMDIVVHTLSTYPELNS
notes: Vps26B N-terminal region, residues 1-160; also called His-Vps26B NT region; purified Vps26B-NT fragment; source: TSsetta (DE3) cells, purified (Ni-NTA resin)
